Like-named read-outs stand apart in the source and are kept apart here.
T1: mouse TL1A (mouse, UniProt Q5UBV8 76-252, limits assumed)
T1 sequence (looked up): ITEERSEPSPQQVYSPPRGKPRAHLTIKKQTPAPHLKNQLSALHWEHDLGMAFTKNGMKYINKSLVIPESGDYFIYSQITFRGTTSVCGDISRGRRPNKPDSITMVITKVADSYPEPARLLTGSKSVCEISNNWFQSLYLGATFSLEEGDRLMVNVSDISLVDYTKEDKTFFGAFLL

T2: human TL1A (human, UniProt O95150 72-251)
T2 construct: Antigen in SPR and ELISA; Also used here for places that print only 'TL1A' and for endogenous TL1A in human whole blood; also called TNFSF15
T2 sequence (looked up): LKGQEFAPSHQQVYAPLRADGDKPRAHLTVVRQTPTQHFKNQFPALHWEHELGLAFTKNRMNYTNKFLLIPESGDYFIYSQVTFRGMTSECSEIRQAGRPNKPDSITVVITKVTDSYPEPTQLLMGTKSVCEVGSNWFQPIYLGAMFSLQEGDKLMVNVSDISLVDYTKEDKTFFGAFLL

T3: Cyno TL1A (cyno, UniProt G7PRK8 72-251)
T3 sequence: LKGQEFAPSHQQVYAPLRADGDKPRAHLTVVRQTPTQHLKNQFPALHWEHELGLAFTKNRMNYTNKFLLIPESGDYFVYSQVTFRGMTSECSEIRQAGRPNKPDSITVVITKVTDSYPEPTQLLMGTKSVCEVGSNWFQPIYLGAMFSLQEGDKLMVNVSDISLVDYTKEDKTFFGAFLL

B1: Antibody 2 (mAb format) (antibody, human IgG1, kappa, N297A)
heavy: QVQLQESGPGLVRPSQTLSLTCTVSGLDPDDTYMHWVRQRPGRGLEWMGRIEPAGGHTKYNPSLKSRVTITRDTSKNQVSLRLSSVTAADTAVYYCVISGGLPDVWGQGSLVTVSSASTKGPSVFPLAPSSKSTSGGTAALGCLVKDYFPEPVTVSWNSGALTSGVHTFPAVLQSSGLYSLSSVVTVPSSSLGTQTYICNVNHKPSNTKVDKKVEPKSCDKTHTCPPCPAPELLGGPSVFLFPPKPKDTLMISRTPEVTCVVVDVSHEDPEVKFNWYVDGVEVHNAKTKPREEQYASTYRVVSVLTVLHQDWLNGKEYKCKVSNKALPAPIEKTISKAKGQPREPQVYTLPPSRDELTKNQVSLTCLVKGFYPSDIAVEWESNGQPENNYKTTPPVLDSDGSFFLYSKLTVDKSRWQQGNVFSCSVLHEALHSHYTQKSLSLSPGK
light: DIQMTQSPSSLSASVGDRVTITCRASSSVSYMYWYQQKPGKAPKLLIYATSNLASGVPSRFSGSGSGTDFTFTISSLQPEDIATYYCQQWEGNPRTFGQGTKVEIKRTVAAPSVFIFPPSDEQLKSGTASVVCLLNNFYPREAKVQWKVDNALQSGNSQESVTEQDSKDSTYSLSSTLTLSKADYEKHKVYACEVTHQGLSSPVTKSFNRGEC
notes: also called high priority lead mAb
B2: Antibody 19 (mAb format) (antibody, human IgG1, kappa, N297A)
heavy: QVQLQESGPGLVRPSQTLSLTCTVSGFDITDTYMHWVRQRPGRGLEWMGRIEPAGGHTKYNPSLKSRVTITRDTSKNQVSLRLSSVTAADTAVYYCVRSGGLPDVWGQGSLVTVSSASTKGPSVFPLAPSSKSTSGGTAALGCLVKDYFPEPVTVSWNSGALTSGVHTFPAVLQSSGLYSLSSVVTVPSSSLGTQTYICNVNHKPSNTKVDKKVEPKSCDKTHTCPPCPAPELLGGPSVFLFPPKPKDTLMISRTPEVTCVVVDVSHEDPEVKFNWYVDGVEVHNAKTKPREEQYASTYRVVSVLTVLHQDWLNGKEYKCKVSNKALPAPIEKTISKAKGQPREPQVYTLPPSRDELTKNQVSLTCLVKGFYPSDIAVEWESNGQPENNYKTTPPVLDSDGSFFLYSKLTVDKSRWQQGNVFSCSVLHEALHSHYTQKSLSLSPGK
light: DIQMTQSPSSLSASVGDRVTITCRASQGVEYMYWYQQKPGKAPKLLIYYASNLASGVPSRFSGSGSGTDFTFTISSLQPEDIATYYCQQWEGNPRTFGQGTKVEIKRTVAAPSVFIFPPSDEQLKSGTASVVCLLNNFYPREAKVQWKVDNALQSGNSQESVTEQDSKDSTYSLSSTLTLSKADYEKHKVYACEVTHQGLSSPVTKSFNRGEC
notes: as for B1
B3: Antibody 11 (mAb format) (antibody, human IgG1, kappa, N297A)
heavy: QVQLQESGPGLVRPSQTLSLTCTVSGFDMGDTYMHWVRQRPGRGLEWMGRIEPAGGHTKYNPSLKSRVTITRDTSKNQVSLRLSSVTAADTAVYYCVRSGGMPDVWGQGSLVTVSSASTKGPSVFPLAPSSKSTSGGTAALGCLVKDYFPEPVTVSWNSGALTSGVHTFPAVLQSSGLYSLSSVVTVPSSSLGTQTYICNVNHKPSNTKVDKKVEPKSCDKTHTCPPCPAPELLGGPSVFLFPPKPKDTLMISRTPEVTCVVVDVSHEDPEVKFNWYVDGVEVHNAKTKPREEQYASTYRVVSVLTVLHQDWLNGKEYKCKVSNKALPAPIEKTISKAKGQPREPQVYTLPPSRDELTKNQVSLTCLVKGFYPSDIAVEWESNGQPENNYKTTPPVLDSDGSFFLYSKLTVDKSRWQQGNVFSCSVLHEALHSHYTQKSLSLSPGK
light: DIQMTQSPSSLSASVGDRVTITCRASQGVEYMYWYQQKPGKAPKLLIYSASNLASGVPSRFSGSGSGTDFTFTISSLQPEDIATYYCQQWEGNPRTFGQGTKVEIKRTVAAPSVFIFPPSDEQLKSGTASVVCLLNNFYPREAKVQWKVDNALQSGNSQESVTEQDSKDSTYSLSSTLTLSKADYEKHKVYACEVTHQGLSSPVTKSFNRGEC
notes: as for B1
B4: Antibody 12 (mAb format) (antibody, human IgG1, kappa, N297A)
heavy: QVQLQESGPGLVRPSQTLSLTCTVSGFDITDTYMHWVRQRPGRGLEWMGRIEPAGGHTKYNPSLKSRVTITRDTSKNQVSLRLSSVTAADTAVYYCVRSGGLPDVWGQGSLVTVSSASTKGPSVFPLAPSSKSTSGGTAALGCLVKDYFPEPVTVSWNSGALTSGVHTFPAVLQSSGLYSLSSVVTVPSSSLGTQTYICNVNHKPSNTKVDKKVEPKSCDKTHTCPPCPAPELLGGPSVFLFPPKPKDTLMISRTPEVTCVVVDVSHEDPEVKFNWYVDGVEVHNAKTKPREEQYASTYRVVSVLTVLHQDWLNGKEYKCKVSNKALPAPIEKTISKAKGQPREPQVYTLPPSRDELTKNQVSLTCLVKGFYPSDIAVEWESNGQPENNYKTTPPVLDSDGSFFLYSKLTVDKSRWQQGNVFSCSVLHEALHSHYTQKSLSLSPGK
light: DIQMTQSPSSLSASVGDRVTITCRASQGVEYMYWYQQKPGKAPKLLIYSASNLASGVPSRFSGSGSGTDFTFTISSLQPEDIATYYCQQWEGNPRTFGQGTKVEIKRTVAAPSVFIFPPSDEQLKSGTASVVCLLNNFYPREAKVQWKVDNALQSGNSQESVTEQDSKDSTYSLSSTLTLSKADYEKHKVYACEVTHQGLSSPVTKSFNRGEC
notes: as for B1
B5: Antibody 20 (mAb format) (antibody, human IgG1, kappa, N297A)
heavy: QVQLQESGPGLVRPSQTLSLTCTVSGFDIQDTYMHWVRQRPGRGLEWMGRIEPASGHTKYNPSLKSRVTITRDTSKNQVSLRLSSVTAADTAVYYCARSGGMPDMWGQGSLVTVSSASTKGPSVFPLAPSSKSTSGGTAALGCLVKDYFPEPVTVSWNSGALTSGVHTFPAVLQSSGLYSLSSVVTVPSSSLGTQTYICNVNHKPSNTKVDKKVEPKSCDKTHTCPPCPAPELLGGPSVFLFPPKPKDTLMISRTPEVTCVVVDVSHEDPEVKFNWYVDGVEVHNAKTKPREEQYASTYRVVSVLTVLHQDWLNGKEYKCKVSNKALPAPIEKTISKAKGQPREPQVYTLPPSRDELTKNQVSLTCLVKGFYPSDIAVEWESNGQPENNYKTTPPVLDSDGSFFLYSKLTVDKSRWQQGNVFSCSVLHEALHSHYTQKSLSLSPGK
light: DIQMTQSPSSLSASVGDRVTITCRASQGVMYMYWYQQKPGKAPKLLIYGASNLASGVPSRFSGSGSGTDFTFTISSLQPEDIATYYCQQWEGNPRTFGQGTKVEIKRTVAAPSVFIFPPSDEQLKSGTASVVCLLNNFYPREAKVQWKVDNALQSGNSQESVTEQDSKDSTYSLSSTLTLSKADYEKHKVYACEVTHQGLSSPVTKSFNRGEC
notes: as for B1
B6: Antibody 17 (mAb format) (antibody, human IgG1, kappa, N297A)
heavy: QVQLQESGPGLVRPSQTLSLTCTVSGFDMGDTYMHWVRQRPGRGLEWMGRIEPAAGHTKYNPSLKSRVTITRDTSKNQVSLRLSSVTAADTAVYYCVRSGGLPDVWGQGSLVTVSSASTKGPSVFPLAPSSKSTSGGTAALGCLVKDYFPEPVTVSWNSGALTSGVHTFPAVLQSSGLYSLSSVVTVPSSSLGTQTYICNVNHKPSNTKVDKKVEPKSCDKTHTCPPCPAPELLGGPSVFLFPPKPKDTLMISRTPEVTCVVVDVSHEDPEVKFNWYVDGVEVHNAKTKPREEQYASTYRVVSVLTVLHQDWLNGKEYKCKVSNKALPAPIEKTISKAKGQPREPQVYTLPPSRDELTKNQVSLTCLVKGFYPSDIAVEWESNGQPENNYKTTPPVLDSDGSFFLYSKLTVDKSRWQQGNVFSCSVLHEALHSHYTQKSLSLSPGK
light: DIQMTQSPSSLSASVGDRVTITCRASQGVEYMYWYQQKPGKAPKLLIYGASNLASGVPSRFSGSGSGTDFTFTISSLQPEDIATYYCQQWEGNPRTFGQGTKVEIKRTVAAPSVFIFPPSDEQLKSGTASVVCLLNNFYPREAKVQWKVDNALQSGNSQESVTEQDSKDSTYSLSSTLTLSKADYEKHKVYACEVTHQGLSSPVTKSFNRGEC
notes: as for B1
B7: Antibody 14 (mAb format) (antibody, human IgG1, kappa, N297A)
heavy: QVQLQESGPGLVRPSQTLSLTCTVSGLDPDDTYMHWVRQRPGRGLEWMGRIEPAGGHTKYNPSLKSRVTITRDTSKNQVSLRLSSVTAADTAVYYCVISGGLPDVWGQGSLVTVSSASTKGPSVFPLAPSSKSTSGGTAALGCLVKDYFPEPVTVSWNSGALTSGVHTFPAVLQSSGLYSLSSVVTVPSSSLGTQTYICNVNHKPSNTKVDKKVEPKSCDKTHTCPPCPAPELLGGPSVFLFPPKPKDTLMISRTPEVTCVVVDVSHEDPEVKFNWYVDGVEVHNAKTKPREEQYASTYRVVSVLTVLHQDWLNGKEYKCKVSNKALPAPIEKTISKAKGQPREPQVYTLPPSRDELTKNQVSLTCLVKGFYPSDIAVEWESNGQPENNYKTTPPVLDSDGSFFLYSKLTVDKSRWQQGNVFSCSVLHEALHSHYTQKSLSLSPGK
light: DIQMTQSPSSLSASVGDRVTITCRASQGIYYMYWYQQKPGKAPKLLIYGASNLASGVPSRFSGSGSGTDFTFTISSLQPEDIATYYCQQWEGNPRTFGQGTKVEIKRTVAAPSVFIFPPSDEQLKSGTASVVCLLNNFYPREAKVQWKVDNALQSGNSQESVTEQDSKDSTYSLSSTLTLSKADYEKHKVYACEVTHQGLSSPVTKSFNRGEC
notes: as for B1
B8: Antibody 18 (mAb format) (antibody, human IgG1, kappa, N297A)
heavy: QVQLQESGPGLVRPSQTLSLTCTVSGFDMGDTYMHWVRQRPGRGLEWMGRIEPAGGHTKYNPSLKSRVTITRDTSKNQVSLRLSSVTAADTAVYYCVRSGGMPDVWGQGSLVTVSSASTKGPSVFPLAPSSKSTSGGTAALGCLVKDYFPEPVTVSWNSGALTSGVHTFPAVLQSSGLYSLSSVVTVPSSSLGTQTYICNVNHKPSNTKVDKKVEPKSCDKTHTCPPCPAPELLGGPSVFLFPPKPKDTLMISRTPEVTCVVVDVSHEDPEVKFNWYVDGVEVHNAKTKPREEQYASTYRVVSVLTVLHQDWLNGKEYKCKVSNKALPAPIEKTISKAKGQPREPQVYTLPPSRDELTKNQVSLTCLVKGFYPSDIAVEWESNGQPENNYKTTPPVLDSDGSFFLYSKLTVDKSRWQQGNVFSCSVLHEALHSHYTQKSLSLSPGK
light: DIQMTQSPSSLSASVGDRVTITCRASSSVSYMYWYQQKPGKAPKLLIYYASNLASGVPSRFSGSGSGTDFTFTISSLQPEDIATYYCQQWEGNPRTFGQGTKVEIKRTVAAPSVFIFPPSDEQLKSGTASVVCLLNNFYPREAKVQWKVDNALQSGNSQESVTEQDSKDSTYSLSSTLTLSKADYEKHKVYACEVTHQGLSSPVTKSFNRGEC
notes: as for B1
B9: Antibody 15 (mAb format) (antibody, human IgG1, kappa, N297A)
heavy: QVQLQESGPGLVRPSQTLSLTCTVSGFDIQDTYMHWVRQRPGRGLEWMGRIEPAGGHTKYNPSLKSRVTITRDTSKNQVSLRLSSVTAADTAVYYCVRSGGLPDAWGQGSLVTVSSASTKGPSVFPLAPSSKSTSGGTAALGCLVKDYFPEPVTVSWNSGALTSGVHTFPAVLQSSGLYSLSSVVTVPSSSLGTQTYICNVNHKPSNTKVDKKVEPKSCDKTHTCPPCPAPELLGGPSVFLFPPKPKDTLMISRTPEVTCVVVDVSHEDPEVKFNWYVDGVEVHNAKTKPREEQYASTYRVVSVLTVLHQDWLNGKEYKCKVSNKALPAPIEKTISKAKGQPREPQVYTLPPSRDELTKNQVSLTCLVKGFYPSDIAVEWESNGQPENNYKTTPPVLDSDGSFFLYSKLTVDKSRWQQGNVFSCSVLHEALHSHYTQKSLSLSPGK
light: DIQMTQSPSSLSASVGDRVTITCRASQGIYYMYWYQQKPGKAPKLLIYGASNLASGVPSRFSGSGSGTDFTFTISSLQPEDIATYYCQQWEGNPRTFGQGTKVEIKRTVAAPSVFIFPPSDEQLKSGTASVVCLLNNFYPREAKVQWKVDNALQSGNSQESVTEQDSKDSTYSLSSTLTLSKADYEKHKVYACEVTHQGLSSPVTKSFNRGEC
notes: as for B1

How the values were obtained:
[1] = molecular target: T1, mouse TL1A; test: SPR, mAb format
[2] = molecular target: T2, human TL1A; test: SPR, mAb format, average
[3] = molecular target: T2, human TL1A; test: SPR, mAb format, average; remark: listed apart in the source
[4] = molecular target: T3, Cyno TL1A; test: SPR, mAb format, average
[5] = molecular target: T2, human TL1A; test: SPR, mAb format, average; remark: listed apart in the source
[6] = molecular target: T4, FcRn (UniProt P55899 24-297; P61769 21-119); test: SPR, mAb format, FcRn at pH 6.0, average
T4 construct: also called neonatal receptor
T4 sequence (P55899 24-297 limits assumed, chain 1 of 2): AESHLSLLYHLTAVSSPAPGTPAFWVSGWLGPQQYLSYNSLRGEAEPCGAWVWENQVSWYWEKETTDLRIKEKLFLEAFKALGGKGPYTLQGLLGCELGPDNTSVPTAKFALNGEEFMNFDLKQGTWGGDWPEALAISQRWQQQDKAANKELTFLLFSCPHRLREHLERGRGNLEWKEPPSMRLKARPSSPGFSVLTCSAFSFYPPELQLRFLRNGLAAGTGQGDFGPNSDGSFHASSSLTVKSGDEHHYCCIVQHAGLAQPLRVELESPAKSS
T4 sequence (P61769 21-119 limits assumed, chain 2 of 2): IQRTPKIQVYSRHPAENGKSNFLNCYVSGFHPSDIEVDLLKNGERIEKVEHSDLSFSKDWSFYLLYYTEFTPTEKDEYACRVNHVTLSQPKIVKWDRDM

[7] = molecular target: T1, mouse TL1A; test: SPR, mAb format, average

Binder | binding result [1] | Kd [2] | Kd [3] | Kd [4] | Kd [5] | Kd [6] | Kd [7]
B1 | no binding | 0.195 nM | 0.195 nM | 0.408 nM | 0.195 nM | 17.1 nM | 
B2 |  | 0.38 nM | 0.38 nM | 0.123 nM | 0.38 nM | 16.5 nM | 691 nM
B3 |  | 0.2 nM | 0.2 nM | 0.135 nM | 0.2 nM | 20.4 nM | 842 nM
B4 |  | 0.17 nM | 0.17 nM | 0.118 nM | 0.17 nM | 19.7 nM | 13100 nM
B5 |  | 0.079 nM | 0.079 nM | 0.046 nM | 0.079 nM | 16.4 nM | 391 nM
B6 |  | 0.172 nM | 0.172 nM | 0.099 nM | 0.172 nM | 17.4 nM | 452 nM
B7 |  | 0.296 nM | 0.296 nM | 0.224 nM | 0.296 nM | 19.8 nM | 3810 nM
B8 |  | 0.252 nM | 0.252 nM | 0.087 nM | 0.252 nM | 16.2 nM | 397 nM
B9 |  | 0.067 nM | 0.067 nM | 0.046 nM | 0.067 nM | 17.4 nM | 162 nM

— patent publication US20250109209A1 (ABSCI, published 2025)
